Measurements reported in US6420345.

What was measured:
CDK4/cyclin D1 complex [1] = target: CDK4/cyclin D1 complex (UniProt P11802); experiment: cell-based or functional assay
CDC2/cyclin B complex = CDC2/cyclin B complex (UniProt P06493); experiment: cell-based or functional assay
CDK2/cyclin E complex = CDK2/cyclin E complex (UniProt P24941); experiment: cell-based or functional assay
CDK2/cyclin A complex = CDK2/cyclin A complex (UniProt P24941); experiment: cell-based or functional assay
CDK4/cyclin D1 complex [2] = target: CDK4/cyclin D1 complex (UniProt P11802); experiment: in vitro kinase inhibition assay (32P incorporation into GST-Rb)

CDK4/cyclin D1 complex, sequence (P11802 whole entry, chain 1 of 2): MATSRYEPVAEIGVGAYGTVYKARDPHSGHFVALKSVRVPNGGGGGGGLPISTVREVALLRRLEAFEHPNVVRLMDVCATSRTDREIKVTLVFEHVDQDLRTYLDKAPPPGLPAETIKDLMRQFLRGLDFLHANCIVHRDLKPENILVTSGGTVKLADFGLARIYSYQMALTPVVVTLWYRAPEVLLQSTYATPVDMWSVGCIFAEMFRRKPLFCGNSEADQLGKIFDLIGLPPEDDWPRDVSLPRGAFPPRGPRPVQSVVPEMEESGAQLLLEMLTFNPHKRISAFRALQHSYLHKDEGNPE
CDK4/cyclin D1 complex, sequence (P24385 whole entry, chain 2 of 2, further chain): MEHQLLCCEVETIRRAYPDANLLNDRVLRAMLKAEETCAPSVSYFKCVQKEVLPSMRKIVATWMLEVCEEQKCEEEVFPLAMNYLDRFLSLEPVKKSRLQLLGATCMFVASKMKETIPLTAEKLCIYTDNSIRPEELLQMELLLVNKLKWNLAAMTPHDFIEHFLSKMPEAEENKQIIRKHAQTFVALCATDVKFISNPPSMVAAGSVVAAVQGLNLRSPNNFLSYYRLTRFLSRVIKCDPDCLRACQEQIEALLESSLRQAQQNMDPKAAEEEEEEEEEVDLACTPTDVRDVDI
CDC2/cyclin B complex, sequence (P06493 whole entry, chain 1 of 2): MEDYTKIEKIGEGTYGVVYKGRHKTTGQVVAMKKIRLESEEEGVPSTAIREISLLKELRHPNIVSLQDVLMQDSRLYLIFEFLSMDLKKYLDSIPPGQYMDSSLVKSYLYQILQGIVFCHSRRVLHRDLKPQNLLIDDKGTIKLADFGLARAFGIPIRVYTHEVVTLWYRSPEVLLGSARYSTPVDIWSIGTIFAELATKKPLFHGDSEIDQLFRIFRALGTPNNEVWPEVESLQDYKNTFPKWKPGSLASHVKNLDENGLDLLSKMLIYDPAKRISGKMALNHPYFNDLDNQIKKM
CDC2/cyclin B complex, sequence (P14635 whole entry, chain 2 of 2, further chain): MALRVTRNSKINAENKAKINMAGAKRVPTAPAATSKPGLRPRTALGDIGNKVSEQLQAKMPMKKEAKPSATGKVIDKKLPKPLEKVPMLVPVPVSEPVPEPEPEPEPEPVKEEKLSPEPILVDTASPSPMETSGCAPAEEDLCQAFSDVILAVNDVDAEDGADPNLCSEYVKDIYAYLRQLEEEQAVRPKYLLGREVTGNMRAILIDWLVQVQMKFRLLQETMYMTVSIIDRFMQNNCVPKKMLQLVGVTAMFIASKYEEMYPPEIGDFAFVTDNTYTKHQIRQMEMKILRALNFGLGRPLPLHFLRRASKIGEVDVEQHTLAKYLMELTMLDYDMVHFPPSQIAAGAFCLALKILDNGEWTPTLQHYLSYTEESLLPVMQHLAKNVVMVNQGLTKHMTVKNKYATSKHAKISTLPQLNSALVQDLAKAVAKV

IC50, in vitro kinase assay (CDK4/cyclin D1 complex [1]) [nM]	IC50, in vitro kinase assay (CDC2/cyclin B complex) [nM]	IC50, in vitro kinase assay (CDK2/cyclin E complex) [nM]	IC50, in vitro kinase assay (CDK2/cyclin A complex) [nM]	Ki (CDK4/cyclin D1 complex [2]) [nM]	Substance
63	20				human p27 (full length, 6xHis and HA tagged) (from UniProt P46527 1-198)
25	15	30	25	23	p27-p16 fusion protein
